Experimental findings from patent US7186697 are described below.

The target in this test is recombinant HIV-1 gp120 (American Biotechnology, Inc.) (HIV-1). Description: ELISA on gp120-coated plates, culture medium. (In general: An ELISA detects its analyte on a solid surface through an enzyme-linked reagent.)

Take “Fab105-Protamine fusion protein (from UniProt P04553 1-51)”: the binding activity against HIV gp120 in culture medium (µg/ml/24 hours) was found to be 0.1.
